Test results taken from article PMC10465447, “Magnetically controlled graphene field-effect transistor biosensor for highly sensitive detection of cardiac troponin I”.

Molecular target: cardiac troponin I (CTNI) (UniProt P19429 2-210)
Assay: pull-down with anti-CTNI antibody magnetic beads, supernatant fluorescence; 2 uM aptamer (10 uL), 10 uM CTNI (100 uL); fluorescence about 1400 to 1050 A.U.; PBS pH 7.4 washes; binding buffer not stated; room temperature 2 h (solution pull-down); 30 min bead reaction on sensor
Details: protein: commercial; label: 3'-6-FAM

Chain of cardiac troponin I (CTNI) (P19429 2-210): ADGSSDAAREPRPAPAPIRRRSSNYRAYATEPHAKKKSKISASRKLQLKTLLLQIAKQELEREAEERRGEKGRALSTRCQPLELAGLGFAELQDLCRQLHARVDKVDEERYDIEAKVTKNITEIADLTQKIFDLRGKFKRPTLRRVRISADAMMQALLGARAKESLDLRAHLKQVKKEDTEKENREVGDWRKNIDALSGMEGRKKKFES

B1: CTNI aptamer (ssDNA)
DNA: CGTGCAGTACGCCAACCTTTCTCATGCGCTGCCCCTCTTA
modifications: 5'-NH2
B1: binds.
